Reference: US12533399B2, “Composition comprising tTF-NGR for use in treating soft-tissue sarcoma” (ANTUREC PHARMACEUTICALS GMBH, priority 2020, dated 2026)

What was measured:
[1] = tested on: HT1080 human sarcoma cells; test: PS upregulation on HT1080 sarcoma cells; type: cell-based; conditions: Trabectedin 10 nM, 8 h; 6 experiments; p=0.001 vs non-Trabectedin control
Description: FIG. 5: illustration of the synergistic activity of tTF-NGR and Trabectedin in HT1080 human sarcoma cells. […] Means+standard error (p value=0.001). Propidiumiodide was used as an internal necrosis control. […] Means of 4 experiments+standard error and p-values.
As in tumor tissues part of the inner vascular cell layer of the neovasculature is not formed by endothelial cells, but also by tumor cells, which is termed “vascular mimicry”, analog experiments were also performed with HT1080 human sarcoma cells instead of HUVECs (see FIG. 5).

[2] = tested on: HUVEC; test: PS upregulation on HUVEC cell membranes, flow cytometry with annexin V-FITC; type: cell-based, human
Description: FIG. 4: illustration of the synergistic activity of tTF-NGR and Trabectedin in human vascular endothelial cells (HUVEC). […] PS is detected by the fluorescent PS-binding annexin V-FITC.
This effect is specifically dependent on the presence of PS as it can be completely abolished by masking PS via preincubation with annexin V.

[3] = tested on: tumor; test: Intravascular contrast enhanced MRI of the tumor after tTF-NGR (FIG. 3); type: in vivo; conditions: few hours after tTF-NGR application
Source text: FIG. 3: illustration of the therapeutic activity and modes of action of tTF-NGR by different imaging techniques. 1. Bluish coloration of the tumor (A, left: tTF-NGR. A, right: vehicle control) few hours after injection of tTF-NGR macroscopically visualizing blood pooling and vascular disruption. 2. Intravascular contrast enhanced Magnetic Resonance Imaging (MRI) of the tumor showing anatomy of the tumors (A, B) and drastic decrease of blood flow from high blood flow (C) to low (D) few hours after tTF-NGR application. The vascular volume fraction was quantified to decrease>1 log. 3. H&E staining of sarcoma xenograft tissue (A, thrombosis, blood pooling and vascular disruption after tTF-NGR; B, saline control with normal vasculature). 4. In vivo fluorescence reflectance imaging showing the vascular anatomy by intravascular fluorescent fibrin after tTF-NGR (B). A, before tTF-NGR; B, 1 hour after tTF-NGR; C, vascular disruption 24 hours after tTF-NGR.

[4] = biological target: T1, CD13 (Homo sapiens, UniProt P15144); test: Binding of tTF-NGR to its target on growing endothelial cells; type: cell-based
T1 construct: endogenous in cells; host or cells: growing / stimulated endothelial cells (EC)
Description: (§1) These fusion proteins were tested in vitro and in vivo for essential therapeutic properties, such as pro-coagulatory activity, specific binding to their respective target molecules on stimulated endothelial cells (EC) or pericytes, in vivo intratumoral accumulation, in vivo intratumoral activation of coagulation, tumor vascular occlusion and inhibition of blood flow, pharmacodynamic properties including therapeutic antitumor activity in xenotransplants of human tumors from different histologic origin, and finally rodent as well as non-rodent animal safety and toxicology. […] Preclinical therapeutic activity of tTF-NGR was independent of tumor histology (e.g. melanoma, lung, breast, sarcoma, glioblastoma).

[5] = tested on: xenotransplants of human tumors; test: Preclinical therapeutic activity in xenotransplants of human tumors; type: in vivo
Description: as §1

[6] = Clinical phase I study of tTF-NGR: pharmacokinetics; type: in vivo, human; conditions: patients
Description: (§2) A clinical phase I trial was performed (EudraCT-No.: 2016-003042-85; NCT02902237) with tTF-NGR applied as 1-hour infusion solved in 0.9% NaCl via a central venous line in late stage cancer patients. This trial was a first-in-class trial, which was guided by repeated contrast-enhanced ultrasound (CEUS) and MRI to assess for blood flow decrease in tumor signal lesions. A “5-day q day 22” schedule was used in the study design.

[7] = tested on: tumor blood flow (intratumoral blood circulation); test: Clinical phase I study of tTF-NGR: tumor blood flow by CEUS and MRI; type: in vivo, human; conditions: patients
Description: as §2
(§3) The tumor blood flow inhibition was up to >1-log-step. […] In none of the patients treated so far a CR or a PR could be observed.

[8] = Toxicity evaluation according to EU-guidelines S6 and S9; type: in vivo; conditions: most sensitive species (mouse)
Source text: tTF-NGR was produced using E. coli via a clinical-grade production process and a 4-step HPLC purification. The production process and the GMP facility are approved by the regional government (Manufacturer's Authorisation by Regierungspräsidium) and the federal Paul Ehrlich-Institute (PEI). Toxicity evaluation according to EU-guidelines S6 and S9 in mouse, rat, guinea pigs, and dogs has been completed.

[9] = tested on: late stage solid tumor and lymphoma patients; test: Clinical phase I study of tTF-NGR: DLT, safety, response; type: in vivo, human
Description: as §2
This sensitive laboratory DLT was fast reversible and allows early monitoring for subsequent dose adjustment in future trials. […] Thus, the trial was completed with a recommended dose for phase II (RPIID) at 3 mg/m^2/day×5, q d 22. The investigational medicinal product (IMP) is given via a PORT central venous access in 100 mL 0.9% NaCl over a rate-controlled infusion with a 1-hour duration.
as §3

T1 sequence (P15144 whole entry): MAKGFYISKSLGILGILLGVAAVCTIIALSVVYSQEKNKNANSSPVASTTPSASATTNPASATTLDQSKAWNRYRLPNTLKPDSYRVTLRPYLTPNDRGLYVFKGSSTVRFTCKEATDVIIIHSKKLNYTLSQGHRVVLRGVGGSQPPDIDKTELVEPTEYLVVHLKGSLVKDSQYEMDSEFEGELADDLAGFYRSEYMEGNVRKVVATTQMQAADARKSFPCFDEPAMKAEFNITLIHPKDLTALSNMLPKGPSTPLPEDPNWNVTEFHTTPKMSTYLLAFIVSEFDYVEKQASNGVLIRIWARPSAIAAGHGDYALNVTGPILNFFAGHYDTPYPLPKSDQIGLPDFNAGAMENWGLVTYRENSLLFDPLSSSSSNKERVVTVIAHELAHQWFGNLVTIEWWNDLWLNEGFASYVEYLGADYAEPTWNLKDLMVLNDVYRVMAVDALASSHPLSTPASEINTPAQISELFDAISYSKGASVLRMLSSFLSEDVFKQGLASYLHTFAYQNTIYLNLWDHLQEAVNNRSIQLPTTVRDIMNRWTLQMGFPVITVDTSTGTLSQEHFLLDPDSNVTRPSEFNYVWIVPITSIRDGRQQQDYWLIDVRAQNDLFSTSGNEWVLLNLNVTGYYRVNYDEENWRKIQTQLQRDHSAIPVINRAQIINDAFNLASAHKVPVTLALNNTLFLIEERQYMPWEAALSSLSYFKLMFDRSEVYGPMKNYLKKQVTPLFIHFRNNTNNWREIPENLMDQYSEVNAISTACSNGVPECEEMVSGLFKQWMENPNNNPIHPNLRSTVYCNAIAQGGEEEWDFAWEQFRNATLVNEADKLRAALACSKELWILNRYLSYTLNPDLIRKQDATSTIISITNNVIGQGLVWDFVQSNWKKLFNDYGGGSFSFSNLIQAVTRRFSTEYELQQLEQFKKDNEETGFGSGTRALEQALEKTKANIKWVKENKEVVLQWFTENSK

Row | Molecule | PS upregulation on HT1080 sarcoma cells [1] | PS-positive cells (lower right quadrant) ([2]; Trabectedin 15 nM, 8 h incubation, 7.21% without Trabectedin, one example experiment) | PS upregulation on HUVECs ([2]; increasing doses, after 8 and 12 h, 7 experiments, P<0.0001 vs non-Trabectedin control) | decrease of vascular volume fraction [3] | binding to CD13 on growing EC [4] | effect on tumor growth ([5]; independent of tumor histology (melanoma, lung, breast, sarcoma, glioblastoma)) | resistance development ([5]; repeated rounds of treatment) | accumulation with repeated cycles [6] | mean terminal half life ([6]; 1-hour iv infusion) | blood flow in normal organs [7] | tumor blood flow inhibition ([7]; up to) | limiting toxicity [8] | adverse event ([9]; at 3 mg/m^2, CTCAE II resolved, patient with angiosarcoma in left atrium) | kind of dose-limiting toxicity ([9]; at 4 mg/m^2/day, fast reversible, no clinical sequelae) | adverse event ([9]; at 4 mg/m^2, CTCAE grade II and resolved) | adverse event ([9]; at 5 mg/m^2, 1 patient, completely resolved) | dose limiting toxicity (DLT) dose ([9]; daily 1-hour iv infusions for 5 days, q day 22) | patients with CR or PR ([9]; patients treated so far) | human anti-fusion protein antibodies (HAFA) ([9]; without clinical symptoms or neutralizing capacity) | recommended dose for phase II (RPIID) ([9]; x5, q d 22)
1 | COc1cc2c(cc1O)CCN[C@]21CS[C@@H]2c3c(OC(C)=O)c(C)c4c(c3[C@H](COC1=O)N1[C@@H]2[C@H]2c3c(cc(C)c(OC)c3O)C[C@@H]([C@@H]1O)N2C)OCO4 [Trabectedin] | significant PS upregulation | 29.22% | PS upregulation |  |  |  |  |  |  |  |  |  |  |  |  |  |  |  |  | 
2 | tTF-NGR: fusion protein of truncated tissue factor (tTF) with C-terminal NGR targeting peptide binding CD13 and N-terminal His-tag, SEQ ID NO: 2 (protein, His-tTF-NGR fusion protein) MHHHHHHSSGLVPRGSGMKETAAAKFERQHMDSPDLGTDDDDKAMGSGTTNTVAAYNLTWKSTNFKTILEWEPKPVNQVYTVQISTKSGDWKSKCFYTTDTECDLTDEIVKDVKQTYLARVFSYPAGNVESTGSAGEPLYENSPEFTPYLETNLGQPTIQSFEQVGTKVNVTVEDERTLVRRNNTFLSLRDVFGKDLIYTLYYWKSSSSGKKTAKTNTNEFLIDVDKGENYCFSVQAVIPSRTVNRKSTDSPVECMGQEKGEFRGNGRAHA |  |  |  | > 1 log | specifically binds to CD13 | tumor growth inhibition and regression | no resistance development | no accumulation | 8.99 h | without blood flow decrease in normal organs | > 1 log-step | pulmonary embolism | transient ischemic attack | temporary troponin T hs showed increase | central venous catheter-related venous thrombosis | CTCAE grade II lower limb deep vein thrombosis | 5 mg/m^2 per day | none | detected in few patients | 3 mg/m^2/day
